According to paper PMC10896785:

Molecular target: heat shock protein 90 (Hsp90), endogenous mouse, P07901
Assay: in situ proximity-ligation assay (PLA)
Settings: chain shown with the change; primary mouse embryonic fibroblasts (MEFs); anti-FKBP51 and anti-Hsp90 antibodies; parent: est. 240; read off a plot

response (PLA dots/Nuclei): 73
B1: FK506-binding protein 51 kDa (FKBP51), wild-type mouse, Q64378 K352A; R356A (protein)
chain: MTTDEGTSNNGENPAATMTEQGEDITTKKDRGVLKIVKRVGTSDEAPMFGDKVYVHYKGMLSDGKKFDSSHDRKKPFAFSLGQGQVIKAWDIGVSTMKKGEICHLLCKPEYAYGSAGHLQKIPSNATLFFEIELLDFKGEDLFEDSGVIRRIKRKGEGYSNPNEGATVKVHLEGCCGGRTFDCRDVVFVVGEGEDHDIPIGIDKALVKMQREEQCILYLGPRYGFGEAGKPKFGIDPNAELMYEVTLKSFEKAKESWEMDTKEKLTQAAIVKEKGTVYFKGGKYTQAVIQYRKIVSWLEMEYGLSEKESKASESFLLAAFLNLAMCYLKLREYNKAVECCDKALGLDSANEAGLYARGEAQLLMNDFESAKGDFEKVLAVNPQNRAARLQISMCQRKAKEHNERDRRVYANMFKKFAERDAKEEASKAGSKKAVEGAAGKQHESQAMEEGKAKGHV
